Source: patent US20100093619A1

Experiments:
Test in all cases: cell-based or functional assay
[1] = molecular target: cysteine-like cathepsin-B protease activity from Acyrthosiphon pisum (pea aphid) extracts (Acyrthosiphon pisum)
[2] = molecular target: serine-like chymotrypsin protease activity from Spodoptera littoralis (cotton leafworm) gut extracts (Spodoptera littoralis)
[3] = molecular target: serine-like trypsin protease activity from Spodoptera littoralis (cotton leafworm) gut extracts (Spodoptera littoralis)
[4] = molecular target: cysteine-like cathepsin-L protease activity from Tetranychus urticae (spider mite) extracts (Tetranychus urticae)
[5] = molecular target: serine-like chymotrypsin protease activity from Sesamia nonagrioides (Mediterranean corn borer) gut extracts (Sesamia nonagrioides)
[6] = molecular target: cysteine-like cathepsin-L protease activity from Acyrthosiphon pisum (pea aphid) extracts (Acyrthosiphon pisum)
[7] = molecular target: serine-like trypsin protease activity from Ostrinia nubilalis (European corn borer) gut extracts (Ostrinia nubilalis)
[8] = molecular target: cysteine-like cathepsin-B protease activity from Leptinotarsa decemlineata (Colorado potato beetle) gut extracts (Leptinotarsa decemlineata)
[9] = molecular target: cysteine-like cathepsin-L protease activity from Tribolium castaneum (red flour beetle) extracts (Tribolium castaneum)
[10] = molecular target: serine-like trypsin protease activity from Sesamia nonagrioides (Mediterranean corn borer) gut extracts (Sesamia nonagrioides)
[11] = molecular target: cysteine-like cathepsin-L protease activity from Bemisia tabaci (sweetpotato whitefly) extracts (Bemisia tabaci)
[12] = molecular target: cysteine-like cathepsin-L protease activity from Leptinotarsa decemlineata (Colorado potato beetle) gut extracts (Leptinotarsa decemlineata)

% Inhibition of cathepsin B activity at 1.25 µM AtSerpin1 [1]: 50%
% Inhibition of cathepsin B activity at 5 µM AtSerpin1 [1]: 55%
% Inhibition of cathepsin B activity at 10 µM AtSerpin1 [1]: 55%
concentration of AtSerpin1 for 50% inhibition of cathepsin-B activity (FIG. 14) [1]: 1 µM
% Inhibition of chymotrypsin activity at 1.25 µM AtSerpin1 [2]: 10%
% Inhibition of chymotrypsin activity at 5 µM AtSerpin1 [2]: 31%
% Inhibition of chymotrypsin activity at 10 µM AtSerpin1 [2]: 40%
concentration of AtSerpin1 for 50% inhibition of chymotrypsin activity (FIG. 10) [2]: 10 to 20 µM
% Inhibition of trypsin activity at 1.25 µM AtSerpin1 [3]: 52%
% Inhibition of trypsin activity at 5 µM AtSerpin1 [3]: 83%
% Inhibition of trypsin activity at 10 µM AtSerpin1 [3]: 90%
concentration of AtSerpin1 for 50% inhibition of trypsin activity (fluorometric substrate, FIG. 10) [3]: 1 µM
concentration of AtSerpin1 for 50% inhibition of cathepsin-L activity (FIG. 16) [4]: 2 µM
concentration of AtSerpin1 for ≧50% inhibition of chymotrypsin activity (FIG. 11) [5]: > 10 µM
% Inhibition of cathepsin L activity at 1.25 µM AtSerpin1 [6]: 42%
% Inhibition of cathepsin L activity at 5 µM AtSerpin1 [6]: 42%
% Inhibition of cathepsin L activity at 10 µM AtSerpin1 [6]: 39%
plateau of % inhibition of cathepsin-L activity (FIG. 14) [6]: 60%
% Inhibition of trypsin activity at 2 µM AtSerpin1 [7]: 28%
% Inhibition of cathepsin B activity at 1.25 µM AtSerpin1 [8]: 40%
% Inhibition of cathepsin B activity at 5 µM AtSerpin1 [8]: 47%
% Inhibition of cathepsin B activity at 10 µM AtSerpin1 [8]: 46%
concentration of AtSerpin1 for 50% inhibition of cathepsin-B activity (fluorometric substrate, FIG. 12) [8]: > 10 µM
IC50 of inhibition of cathepsin-L activity (FIG. 13) [9]: 4 µM
% Inhibition of trypsin activity at 1.25 µM AtSerpin1 [10]: 90%
% Inhibition of trypsin activity at 5 µM AtSerpin1 [10]: 97%
% Inhibition of trypsin activity at 10 µM AtSerpin1 [10]: 98%
concentration of AtSerpin1 for 50% inhibition of trypsin activity (FIG. 11) [10]: 0.1 µM
% inhibition of cathepsin-L activity at 20 µM AtSerpin1 (FIG. 15) [11]: 45%
% Inhibition of cathepsin L activity at 1.25 µM AtSerpin1 [12]: 4%
% Inhibition of cathepsin L activity at 5 µM AtSerpin1 [12]: 34%
% Inhibition of cathepsin L activity at 10 µM AtSerpin1 [12]: 48%
concentration of AtSerpin1 for 50% inhibition of cathepsin-L activity (fluorometric substrate, FIG. 12) [12]: > 10 µM
B1: recombinant AtSerpin1 (Arabidopsis thaliana serpin-1, At1g47710), HIS6-tagged (protein, not shown: small tags and cut ends)
chain: MDVRESISLQNQVSMNLAKHVITTVSQNSNVIFSPASINVVLSIIAAGSAGATKDQILSFLKFSSTDQLNSFSSEIVSAVLADGSANGGPKLSVANGAWIDKSLSFKPSFKQLLEDSYKAASNQADFQSKAVEVIAEVNSWAEKETNGLITEVLPEGSADSMTKLIFANALYFKGTWNEKFDESLTQEGEFHLLDGNKVTAPFMTSKKKQYVSAYDGFKVLGLPYLQGQDKRQFSMYFYLPDANNGLSDLLDKIVSTPGFLDNHIPRRQVKVREFKIPKFKFSFGFDASNVLKGLGLTSPFSGEEGLTEMVESPEMGKNLCVSNIFHKACIEVNEEGTEAAAASAGVIKLRGLLMEEDEIDFVADHPFLLVVTENITGVVLFIGQVVDPLH
